Data taken from the supplement of paper PMC9876800.

Tested on: peptide library, one residue held at a place counted from the S/T acceptor
Assay: relative phosphorylation of the sub-library (ratio to the mean residue at this position); higher = residue favoured
Details: human
Method in brief: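 Purified recombinant kinases (human or orthologue constructs) were incubated in 384-well plates with biotinylated degenerate peptide sub-libraries, each fixing one residue at one position around a central Ser/Thr. Peptides were at 50 μM, with 50 μM ATP spiked with γ-32P-ATP, for 90 min under kinase-specific conditions. Spots on streptavidin membranes were phosphorimaged and quantified by densitometry. Relative sub-library phosphorylation is a ratio to the mean residue at that position.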

Chain of PHKG1, construct: Full length (Q16816 whole entry, looked up): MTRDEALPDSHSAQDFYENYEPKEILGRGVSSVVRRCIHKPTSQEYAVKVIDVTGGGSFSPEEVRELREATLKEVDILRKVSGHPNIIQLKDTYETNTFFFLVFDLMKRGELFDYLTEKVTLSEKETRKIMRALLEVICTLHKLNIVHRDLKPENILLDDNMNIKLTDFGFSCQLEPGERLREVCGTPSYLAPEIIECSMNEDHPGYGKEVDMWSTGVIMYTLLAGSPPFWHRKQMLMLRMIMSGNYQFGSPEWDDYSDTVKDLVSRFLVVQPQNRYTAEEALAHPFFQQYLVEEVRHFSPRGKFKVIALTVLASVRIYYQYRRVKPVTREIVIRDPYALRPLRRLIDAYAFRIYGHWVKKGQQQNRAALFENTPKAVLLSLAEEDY

PHKG1, construct: Full length (from UniProt Q16816)
relative phosphorylation
Details	at +1	at +2	at +3	at +4	at -1	at -2	at -3	at -4	at -5
A fixed	0.524	0.708	0.898	0.937	0.837	1.11	0.736	0.926	1
D fixed	0.175	0.2	0.276	0.343	0.512	0.624	0.356	0.439	0.436
E fixed	0.197	0.139	0.272	0.238	0.411	1.49	0.376	0.573	0.367
F fixed	3.7	1.16	1.29	1.13	1.06	0.838	0.53	0.865	1.18
G fixed	0.491	0.721	1.06	1.02	0.741	1.13	0.824	1.15	0.937
H fixed	0.712	1.35	1.3	1.18	1.24	0.984	1.12	1.11	1.1
I fixed	1.5	0.516	0.891	0.75	0.611	0.363	0.278	0.728	0.791
K fixed	0.777	2.04	1.37	2.01	1.44	1.12	2.55	1.56	1.46
L fixed	1.17	0.544	1.06	0.956	0.927	0.576	0.376	0.823	1.34
M fixed	1.65	0.694	0.957	0.886	1.18	0.969	0.458	0.957	0.824
N fixed	0.513	0.739	0.786	0.866	1.32	1.28	0.721	0.764	0.664
P fixed	0.292	0.721	1.09	1.29	0.999	0.702	0.926	1.17	1.01
Q fixed	0.779	0.703	0.782	1.01	1.14	2.05	0.936	0.927	0.779
R fixed	0.876	3.73	1.46	1.67	1.57	1.55	4.81	1.63	1.58
V fixed	1.22	0.501	0.721	0.752	0.711	0.508	0.311	0.721	0.832
W fixed	1.21	1.48	1.56	1.1	0.931	0.813	0.98	1.58	1.71
Y fixed	1.22	1.06	1.24	0.862	1.38	0.875	0.71	1.08	0.99
pThr fixed	0.419	0.25	0.393	0.356	0.535	0.529	0.621	0.846	0.68
pTyr fixed	0.329	0.171	0.348	0.254	0.675	0.4	0.469	0.721	0.599

PIM3, construct: Full length (from UniProt Q86V86)
relative phosphorylation
Details	at +1	at +2	at +3	at +4	at -1	at -2	at -3	at -4	at -5
A fixed	1.07	0.944	0.735	0.954	0.952	0.672	0.676	0.984	1.16
D fixed	0.918	0.986	1.47	1.17	0.769	0.637	0.718	1.07	0.989
E fixed	1.44	0.858	1.26	1.11	0.996	0.621	0.674	1.14	0.697
F fixed	0.469	0.684	0.673	0.752	0.608	0.761	0.393	0.62	0.693
G fixed	3.27	0.888	1.21	1.37	0.819	0.746	0.848	1.45	1.25
H fixed	0.811	1.84	1.2	1.03	1.02	2.91	0.985	1.1	1.32
I fixed	0.715	0.499	0.602	0.728	0.454	0.427	0.249	0.628	0.533
K fixed	0.959	1.23	1.24	1.09	1.78	1.14	1.64	1.24	1.72
L fixed	0.571	0.624	0.587	0.823	0.693	0.473	0.309	0.567	0.52
M fixed	0.84	0.648	0.733	0.827	0.713	0.566	0.403	0.992	0.539
N fixed	1.21	1.57	1.24	1.16	1.46	1.23	0.74	0.975	0.869
P fixed	0.416	1.11	0.828	1.47	2.12	1.1	1.33	1.42	1
Q fixed	1.33	1.16	1.19	1.14	1.46	1.07	0.856	1.08	0.926
R fixed	0.955	1.44	1.53	0.79	1	2.1	5.83	1.57	2.42
V fixed	0.828	0.7	0.69	0.859	0.697	0.456	0.372	0.657	0.714
W fixed	0.553	0.981	0.931	0.934	0.529	0.905	0.575	0.775	0.961
Y fixed	0.634	0.824	0.87	0.795	0.926	1.19	0.409	0.744	0.688
pThr fixed	1.27	1.04	1.04	1.68	0.585	0.694	0.78	0.779	0.67
pTyr fixed	0.783	0.886	1.11	1.02	1.21	0.975	0.904	1.03	1.03
